Source: US10744088B2, “Method for preparing ophthalmic preparation containing thymosin beta-4” (G-TREEBNT CO., LTD., priority 2015, dated 2020)

Tests used:
[1] = Purity analysis of ophthalmic preparations by HPLC; format: physicochemical; settings: after preparation, HPLC UV 205 nm
Experimental: The purity changes of the ophthalmic preparations prepared in the above Examples and Comparative Examples were analyzed during the period from the initial time after preparation to 12 months later with a high performance liquid chromatography (HPLC), Agilent 1200 instrument under the conditions in Tables 1 and 2, and the results are shown in Table 3.

[2] = Impurity analysis (single maximum impurity, thymosin β4 sulfoxide) by HPLC and LC/MS; format: physicochemical; settings: after preparation; impurity identified as thymosin β4 sulfoxide
Experimental: The amounts of impurities in the ophthalmic preparations prepared in the above Examples and Comparative Examples were analyzed as following, and the results are shown in Table 3.
Specifically, thymosin β4 sulfoxide was synthesized following the methods in the paper (Eur. J. Biochem. 223, 345-350 (1994), Nature Medicine 5(12), 1424 (1999)). Thymosin β4 sulfoxide is a substance modified from thymosin β4 by oxidation, which causes a change in its pharmacological activity compared to thymosin β4.
The molecular weight of the synthesized thymosin β4 sulfoxide was identified by mass analysis (LC/MS) using the MALDI-TOF MS instrument. The analyzed molecular weight was 4,978.5, which was consistent with the value in the document of 4,980±2.
The ophthalmic preparations prepared in Example 1 and Comparative Examples 1 and 2 and the synthesized thymosin β4 sulfoxide were analyzed by HPLC and LC/MS under the same conditions.

Substance: thymosin β4 acetate [Thymosin β4 (raw material)]
- Purity (%) [1]: 99.3%
- Single maximum impurity (%) [2]: Not detected
